Measurements as given in ChEMBL document CHEMBL1152109, “Synthesis and biological evaluation of a new series of dihydrofolate reductase inhibitors based on the 4-(2,6-diamino-5-pyrimidinyl)alkyl-L-glutamic acid structure” (Bioorg Med Chem Lett, 1996).

How the values were obtained:
[1] = Ratio of Vmax/Km was evaluated.
[2] = Binding affinity against human monofunctional glycinamide ribonucleotide formyl transferase (GARFT)
Thymidylate synthase [3] = target: T1, Thymidylate synthase (Homo sapiens, UniProt P04818); test: Binding affinity against Recombinant human thymidylate synthase (TS)
Dihydrofolate reductase = target: T2, Dihydrofolate reductase (Homo sapiens, UniProt P00374); test: Binding affinity against Recombinant human dihydrofolate reductase (DHFR)
T2 sequence (P00374 whole entry): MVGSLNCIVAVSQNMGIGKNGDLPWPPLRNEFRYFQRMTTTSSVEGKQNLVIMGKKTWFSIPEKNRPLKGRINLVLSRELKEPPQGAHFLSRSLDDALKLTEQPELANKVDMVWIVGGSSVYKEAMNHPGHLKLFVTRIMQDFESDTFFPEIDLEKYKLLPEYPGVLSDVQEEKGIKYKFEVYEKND

[4] = Binding affinity against human monofunctional glycinamide ribonucleotide formyl transferase (GARFT).
Thymidylate synthase [5] = target: T1, Thymidylate synthase; test: Binding affinity against Recombinant human thymidylate synthase (TS).
[6] = substrate: Nc1nc2c(c(=O)[nH]1)C[C@@H](CCc1ccc(C(=O)N[C@@H](CCC(=O)O)C(=O)O)cc1)CN2; test: (§1) Substrate activity against folyl-poly-glutamate synthetase isolated from hog liver; settings: Sus scrofa
[7] = substrate: Nc1nc2[nH]cc(CCc3ccc(C(=O)N[C@@H](CCC(=O)O)C(=O)O)cc3)c2c(=O)[nH]1; test: as §1; settings: Sus scrofa
[8] = substrate: CN(Cc1cnc2nc(N)nc(N)c2n1)c1ccc(C(=O)N[C@@H](CCC(=O)O)C(=O)O)cc1; test: as §1; settings: Sus scrofa
[9] = substrate: Nc1ncc(CCCCc2ccc(C(=O)N[C@@H](CCC(=O)O)C(=O)O)cc2)c(N)n1; test: as §1; settings: Sus scrofa
[10] = substrate: Nc1ncc(CCCc2ccc(C(=O)N[C@@H](CCC(=O)O)C(=O)O)cc2)c(N)n1; test: as §1; settings: Sus scrofa
[11] = substrate: CCC(Cc1cnc2nc(N)nc(N)c2n1)c1ccc(C(=O)N[C@@H](CCC(=O)O)C(=O)O)cc1; test: Substrate activity against folyl-poly-glutamate synthetase (FPGS) (isolated from hog liver).; settings: Sus scrofa

T1 sequence (P04818 whole entry): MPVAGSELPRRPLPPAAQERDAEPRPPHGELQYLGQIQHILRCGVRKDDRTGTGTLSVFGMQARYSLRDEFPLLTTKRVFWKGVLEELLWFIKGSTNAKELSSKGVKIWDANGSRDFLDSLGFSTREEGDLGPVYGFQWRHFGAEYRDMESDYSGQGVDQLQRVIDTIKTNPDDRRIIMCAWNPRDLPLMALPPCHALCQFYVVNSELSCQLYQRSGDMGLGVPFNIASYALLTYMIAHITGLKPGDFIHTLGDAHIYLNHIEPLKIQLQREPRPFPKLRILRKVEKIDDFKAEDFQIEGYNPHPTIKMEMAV

`Nc1nc2[nH]cc(CCc3ccc(C(=O)N[C@@H](CCC(=O)O)C(=O)O)cc3)c2c(=O)[nH]1` gave a Ratio [1] of 381.

`CCC(Cc1cnc2nc(N)nc(N)c2n1)c1ccc(C(=O)N[C@@H](CCC(=O)O)C(=O)O)cc1` (stereo partly drawn) showed a Ratio [1] of 19.

In the case of `Nc1nc2c(c(=O)[nH]1)CC(CCc1ccc(C(=O)N[C@@H](CCC(=O)O)C(=O)O)cc1)CN2` (single isomer, unassigned), the Ratio [1] is reported as 60.

For `Nc1ncc(CCCc2ccc(C(=O)N[C@@H](CCC(=O)O)C(=O)O)cc2)c(N)n1`, the Ki [2] was 54.3 µM, the Ki (Thymidylate synthase [3]) was > 5 µM and the Ki (Dihydrofolate reductase) was 120 pM.

For `CN(Cc1cnc2nc(N)nc(N)c2n1)c1ccc(C(=O)N[C@@H](CCC(=O)O)C(=O)O)cc1`, the Ratio [1] was 4.3.

Work on `Nc1ncc(CCCCc2ccc(C(=O)N[C@@H](CCC(=O)O)C(=O)O)cc2)c(N)n1` yielded a Ratio [1] of 34, a Ki [4] of 62 µM and a Ki (Dihydrofolate reductase) of 5 pM. The Ki (Thymidylate synthase [5]) was > 5 µM.

B1: Folylpolyglutamate synthase, mitochondrial (Homo sapiens), Q05932 (protein)
chain: MSRARSHLRAALFLAAASARGITTQVAARRGLSAWPVPQEPSMEYQDAVRMLNTLQTNAGYLEQVKRQRGDPQTQLEAMELYLARSGLQVEDLDRLNIIHVTGTKGKGSTCAFTECILRSYGLKTGFFSSPHLVQVRERIRINGQPISPELFTKYFWRLYHRLEETKDGSCVSMPPYFRFLTLMAFHVFLQEKVDLAVVEVGIGGAYDCTNIIRKPVVCGVSSLGIDHTSLLGDTVEKIAWQKGGIFKQGVPAFTVLQPEGPLAVLRDRAQQISCPLYLCPMLEALEEGGPPLTLGLEGEHQRSNAALALQLAHCWLQRQDRHGAGEPKASRPGLLWQLPLAPVFQPTSHMRLGLRNTEWPGRTQVLRRGPLTWYLDGAHTASSAQACVRWFRQALQGRERPSGGPEVRVLLFNATGDRDPAALLKLLQPCQFDYAVFCPNLTEVSSTGNADQQNFTVTLDQVLLRCLEHQQHWNHLDEEQASPDLWSAPSPEPGGSASLLLAPHPPHTCSASSLVFSCISHALQWISQGRDPIFQPPSPPKGLLTHPVAHSGASILREAAAIHVLVTGSLHLVGGVLKLLEPALSQ
B1 showed a Km [6] of 16.4 µM, a Vmax [6] of 977 nM/h/mg and a Km [7] of 1.9 µM. The Vmax [7] was 725 nM/h/mg, the Km [8] was 116 µM and the Vmax [8] was 498 nM/h/mg. For the same molecule, the Km [9] was 20 µM, the Vmax [9] was 685 nM/h/mg and the Km [10] was 5.1 µM. The Vmax [10] was 758 nM/h/mg, the Km [11] was 13.3 µM and the Vmax [11] was 258 nM/h/mg.
